Test results as given in US20050100554A1 (published 2005).

B1: Human papillomavirus 11 E7 (other)
chain: MHGRLVTLKDIVLDLQPPDPVGLHCYEQLEDSSEDEVDKVDKQDAQPLTQHYQILTCCCGCDSNVRLVVECTDGDIRQLQDLLLGTLNIVCPICAPKP
notes: also called HPV 11 E7; cbe_250834
B2: gbh_af252829 (other)
chain: MGKKQNRKTGNSKTQSTSPPPKERSSSPATDQSWMENDFDELREEGFRRSNYSELREDIQTKGKEVENFEKNLEECITRITNTEKCLKELMELKTKARELREECRSLRSQCDQLEERVSAMEDEMNEMKQEGKFREKRIKRNEQSLQEIWDYVKRPNLRLIGVPESDAENGTKLENTLQDIIQETFPNLARQANVQIQEIQRTPQRYSSRRATPRHIIVRFTKVEMKEKMLRAAREKGRVTLKGKPIRLTADLSAETLQARREWGPILNILKEKNFQPRISYPAKLSFISEGEIKYFTDKQMLTDFVTSRPALKELLKEALNMERNNRYQPLQNHAKM
notes: also called Homo sapiens chromosome 8 clone BAC 495D4 map 8q24; cbe_3454406
B3: Human papillomavirus 11 E1 (other)
chain: MADDSGTENEGSGCTGWFMVEAIVEHTTGTQISEDEEEEVEDSGYDMVDFIDDRHITQNSVEAQALFNRQEADAHYATVQDLKRKYLGSPYVSPISNVANAVESEISPRLDAIKLTTQPKKVKRRLFETRELTDSGYGYSEVEAATQVEKHGDPENGGDGQERDTGRDIEGEGVEHREAEAVDDSTREHADTSGILELLKCKDIRSTLHGKFKDCFGLSFVDLIRPFKSDRTTCADWVVAGFGIHHSIADAFQKLIEPLSLYAHIQWLTNAWGMVLLVLIRFKVNKSRCTVARTLGTLLNIPENHMLIEPPKIQSGVRALYWFRTGISNASTVIGEAPEWITRQTVIEHSLADSQFKLTEMVQWAYDNDICEESEIAFEYAQRGDFDSNARAFLNSNMQAKYVKDCAIMCRHYKHAEMKKMSIKQWIKYRGTKVDSVGNWKPIVQFLRHQNIEFIPFLSKLKLWLHGTPKKNCIAIVGPPDTGKSCFCMSLIKFLGGTVISYVNSCSHFWLQPLTDAKVALLDDATQPCWTYMDTYMRNLLDGNPMSIDRKHRALTLIKCPPLLVTSNIDISKEEKYKYLHSRVTTFTFPNPFPFDRNGNAVYELSDANWKCFFERLSSSLDIEDSEDEEDGSNSQAFRCVPGSVVRTL
notes: also called HPV 11 E1; cbe_251663
B4: proteosome (prosome, macropain) subunit, beta type, 3 (other)
chain: SIMSYNGGAVMAMKGKNCVAIAADRRFGIQAQLVTTDFQKIFPMGDRLYIGLAGLATDVQTVAQRLKFRLNLYELKEGRQIKPYTLMSMVANLLYEKRFGPYYTEPVIAGLDPKTFKPFICSLDLIGCPMVTDDFVVSGTCAEQMYGMCESLWEPNMDPDHLFETISQAMLNAVDRDAVSGMGVIVHIIEKDKITTRTLKARMD
notes: also called PSMB3; cbe_3842044
B5: HPV 16 E1-E4 (other)
chain: MADPAAATKYPLLKLLGSTWPTTPPRPIPKPSPWAPKKHRRLSSDQDQSQTPETPATPLSCCTETQWTVLQSSLHLTAHTKDGLTVIVTLHP
notes: also called cbe_251059
B6: hypothetical protein FLJ20343 (other)
chain: MAQPHTTSVPYFARSPAPPPPSRSGAPPQPPATLRPSRRRTRPPRPADRRDAPADCAYLWRILTPRRGRARRSDVGARHRACGRRDVLLSRQGPANPEGARRVVGGQERVWPAVRRGRGGSMFRLLSWSLGRGFLRAAGRRCRGCSARLLPGLAGGPGPEVQVPPSRVAPHGRGPGLLPLLAALAWFSRPAAAEEEEQQGADGAAAEDGADEAEAEIIQLLKRAKLSIMKDEPEEAELILHDALRLAYQTDNKKAITYTYDLMANLAFIRGQLENAEQLFKATMSYLLGGGMKQEDNAIIEISLKLASIYAAQNRQEFAVAGYEFCISTLEEKIEREKELAEDIMSVEEKANTHLLLGMCLDACARYLLFSKQPSQAQRMYEKALQISEEIQGERHPQTIVLMSDLATTLDAQGRFDEAYIYMQRASDLARQINHPELHMVLSNLAAVLMHRERYTQAKEIYQEALKQAKLKKDEISVQHIREELAELSKKSRPLTNSVKL
notes: also called cbe_3880186

Key:
PTPN21 = target: T1, PTPN21 (human, UniProt Q16825 1-1174); assay: Y2H; INT ID 41
T1 construct: also called cbe_4260642
T1 sequence: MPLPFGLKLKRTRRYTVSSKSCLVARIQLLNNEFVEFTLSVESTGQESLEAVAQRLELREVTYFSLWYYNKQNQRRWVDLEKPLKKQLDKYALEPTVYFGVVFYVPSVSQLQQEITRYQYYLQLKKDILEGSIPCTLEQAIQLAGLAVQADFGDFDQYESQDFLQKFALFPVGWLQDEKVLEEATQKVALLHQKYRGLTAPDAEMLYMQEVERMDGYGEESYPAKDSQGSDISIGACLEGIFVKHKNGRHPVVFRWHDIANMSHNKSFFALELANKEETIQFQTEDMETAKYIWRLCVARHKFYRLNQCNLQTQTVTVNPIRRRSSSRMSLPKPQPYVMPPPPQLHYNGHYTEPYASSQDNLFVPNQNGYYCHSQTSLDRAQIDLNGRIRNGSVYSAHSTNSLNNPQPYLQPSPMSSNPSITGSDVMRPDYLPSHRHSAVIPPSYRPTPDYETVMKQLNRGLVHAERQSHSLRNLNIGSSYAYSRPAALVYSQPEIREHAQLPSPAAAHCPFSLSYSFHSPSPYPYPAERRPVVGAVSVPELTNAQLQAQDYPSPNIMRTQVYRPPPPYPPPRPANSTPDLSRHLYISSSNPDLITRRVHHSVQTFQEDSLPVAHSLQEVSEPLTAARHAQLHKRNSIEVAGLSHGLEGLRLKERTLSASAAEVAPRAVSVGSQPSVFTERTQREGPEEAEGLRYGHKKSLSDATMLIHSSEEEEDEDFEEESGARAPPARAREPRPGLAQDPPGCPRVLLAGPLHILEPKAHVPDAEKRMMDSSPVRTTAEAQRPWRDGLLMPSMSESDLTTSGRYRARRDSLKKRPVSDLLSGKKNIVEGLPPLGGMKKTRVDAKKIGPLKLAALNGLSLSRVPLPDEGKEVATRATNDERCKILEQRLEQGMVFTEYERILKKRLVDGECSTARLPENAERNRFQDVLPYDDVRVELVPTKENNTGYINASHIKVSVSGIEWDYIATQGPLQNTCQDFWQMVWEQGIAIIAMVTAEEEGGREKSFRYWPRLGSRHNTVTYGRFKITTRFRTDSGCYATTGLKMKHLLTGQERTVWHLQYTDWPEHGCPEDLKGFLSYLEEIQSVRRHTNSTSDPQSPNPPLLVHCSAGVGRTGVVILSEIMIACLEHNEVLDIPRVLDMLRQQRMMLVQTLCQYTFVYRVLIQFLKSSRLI

[1] = target: T2, signal-induced proliferation-associated 1 like 1 (human, UniProt O43166 1-1804); assay: Y2H; INT ID 37
T2 construct: also called KIAA0440; cbe_3056756
T2 sequence (O43166 whole entry): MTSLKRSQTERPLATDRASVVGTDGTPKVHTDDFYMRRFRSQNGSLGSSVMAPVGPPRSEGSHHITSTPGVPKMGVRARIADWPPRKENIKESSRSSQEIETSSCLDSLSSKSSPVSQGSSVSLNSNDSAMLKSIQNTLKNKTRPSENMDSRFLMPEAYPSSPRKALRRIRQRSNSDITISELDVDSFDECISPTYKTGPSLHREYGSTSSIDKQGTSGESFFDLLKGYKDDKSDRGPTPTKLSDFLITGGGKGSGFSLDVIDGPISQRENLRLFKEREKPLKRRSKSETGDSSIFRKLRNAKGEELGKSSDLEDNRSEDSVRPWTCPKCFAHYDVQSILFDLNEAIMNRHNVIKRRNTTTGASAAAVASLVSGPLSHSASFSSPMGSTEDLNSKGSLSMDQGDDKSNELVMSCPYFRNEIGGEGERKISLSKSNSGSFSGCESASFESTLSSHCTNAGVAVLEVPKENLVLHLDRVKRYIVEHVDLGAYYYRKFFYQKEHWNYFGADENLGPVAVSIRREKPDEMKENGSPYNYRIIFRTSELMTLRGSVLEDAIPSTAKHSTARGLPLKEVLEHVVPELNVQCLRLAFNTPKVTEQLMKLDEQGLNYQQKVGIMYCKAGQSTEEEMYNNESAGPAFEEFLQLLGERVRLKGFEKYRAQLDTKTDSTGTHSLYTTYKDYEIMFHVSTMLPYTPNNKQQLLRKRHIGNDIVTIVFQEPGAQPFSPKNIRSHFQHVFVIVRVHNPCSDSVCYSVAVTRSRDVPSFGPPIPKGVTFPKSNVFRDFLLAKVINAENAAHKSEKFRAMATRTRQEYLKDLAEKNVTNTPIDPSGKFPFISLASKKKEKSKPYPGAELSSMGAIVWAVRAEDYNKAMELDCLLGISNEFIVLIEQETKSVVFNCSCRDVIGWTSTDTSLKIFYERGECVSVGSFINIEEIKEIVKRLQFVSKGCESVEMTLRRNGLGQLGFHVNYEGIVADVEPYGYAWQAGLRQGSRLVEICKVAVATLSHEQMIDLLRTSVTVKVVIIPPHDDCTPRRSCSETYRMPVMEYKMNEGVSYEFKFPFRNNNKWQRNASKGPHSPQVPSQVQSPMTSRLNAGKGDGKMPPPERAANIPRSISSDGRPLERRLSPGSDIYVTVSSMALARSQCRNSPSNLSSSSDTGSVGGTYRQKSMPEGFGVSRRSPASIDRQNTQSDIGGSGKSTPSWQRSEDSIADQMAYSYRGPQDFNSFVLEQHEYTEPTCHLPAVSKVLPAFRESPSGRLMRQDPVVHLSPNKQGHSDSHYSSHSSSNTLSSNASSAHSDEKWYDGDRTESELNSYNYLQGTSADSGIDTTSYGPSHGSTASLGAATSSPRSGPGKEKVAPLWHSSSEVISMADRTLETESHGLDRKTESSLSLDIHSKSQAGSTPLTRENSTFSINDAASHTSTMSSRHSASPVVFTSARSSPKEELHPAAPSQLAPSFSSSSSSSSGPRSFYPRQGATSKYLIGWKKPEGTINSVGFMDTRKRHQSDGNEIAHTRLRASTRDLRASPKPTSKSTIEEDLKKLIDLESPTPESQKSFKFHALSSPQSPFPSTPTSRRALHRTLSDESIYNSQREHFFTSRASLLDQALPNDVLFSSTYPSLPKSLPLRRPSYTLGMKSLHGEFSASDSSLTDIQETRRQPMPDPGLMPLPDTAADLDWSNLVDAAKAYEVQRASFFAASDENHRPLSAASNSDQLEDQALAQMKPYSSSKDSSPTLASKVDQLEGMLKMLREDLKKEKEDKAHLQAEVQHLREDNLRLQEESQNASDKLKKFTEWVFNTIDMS

ITGB4 = target: T3, ITGB4 (human, UniProt P16144 28-1822); assay: Y2H; INT ID 49
T3 construct: also called cbe_4280774
T3 sequence (P16144 28-1822 limits assumed): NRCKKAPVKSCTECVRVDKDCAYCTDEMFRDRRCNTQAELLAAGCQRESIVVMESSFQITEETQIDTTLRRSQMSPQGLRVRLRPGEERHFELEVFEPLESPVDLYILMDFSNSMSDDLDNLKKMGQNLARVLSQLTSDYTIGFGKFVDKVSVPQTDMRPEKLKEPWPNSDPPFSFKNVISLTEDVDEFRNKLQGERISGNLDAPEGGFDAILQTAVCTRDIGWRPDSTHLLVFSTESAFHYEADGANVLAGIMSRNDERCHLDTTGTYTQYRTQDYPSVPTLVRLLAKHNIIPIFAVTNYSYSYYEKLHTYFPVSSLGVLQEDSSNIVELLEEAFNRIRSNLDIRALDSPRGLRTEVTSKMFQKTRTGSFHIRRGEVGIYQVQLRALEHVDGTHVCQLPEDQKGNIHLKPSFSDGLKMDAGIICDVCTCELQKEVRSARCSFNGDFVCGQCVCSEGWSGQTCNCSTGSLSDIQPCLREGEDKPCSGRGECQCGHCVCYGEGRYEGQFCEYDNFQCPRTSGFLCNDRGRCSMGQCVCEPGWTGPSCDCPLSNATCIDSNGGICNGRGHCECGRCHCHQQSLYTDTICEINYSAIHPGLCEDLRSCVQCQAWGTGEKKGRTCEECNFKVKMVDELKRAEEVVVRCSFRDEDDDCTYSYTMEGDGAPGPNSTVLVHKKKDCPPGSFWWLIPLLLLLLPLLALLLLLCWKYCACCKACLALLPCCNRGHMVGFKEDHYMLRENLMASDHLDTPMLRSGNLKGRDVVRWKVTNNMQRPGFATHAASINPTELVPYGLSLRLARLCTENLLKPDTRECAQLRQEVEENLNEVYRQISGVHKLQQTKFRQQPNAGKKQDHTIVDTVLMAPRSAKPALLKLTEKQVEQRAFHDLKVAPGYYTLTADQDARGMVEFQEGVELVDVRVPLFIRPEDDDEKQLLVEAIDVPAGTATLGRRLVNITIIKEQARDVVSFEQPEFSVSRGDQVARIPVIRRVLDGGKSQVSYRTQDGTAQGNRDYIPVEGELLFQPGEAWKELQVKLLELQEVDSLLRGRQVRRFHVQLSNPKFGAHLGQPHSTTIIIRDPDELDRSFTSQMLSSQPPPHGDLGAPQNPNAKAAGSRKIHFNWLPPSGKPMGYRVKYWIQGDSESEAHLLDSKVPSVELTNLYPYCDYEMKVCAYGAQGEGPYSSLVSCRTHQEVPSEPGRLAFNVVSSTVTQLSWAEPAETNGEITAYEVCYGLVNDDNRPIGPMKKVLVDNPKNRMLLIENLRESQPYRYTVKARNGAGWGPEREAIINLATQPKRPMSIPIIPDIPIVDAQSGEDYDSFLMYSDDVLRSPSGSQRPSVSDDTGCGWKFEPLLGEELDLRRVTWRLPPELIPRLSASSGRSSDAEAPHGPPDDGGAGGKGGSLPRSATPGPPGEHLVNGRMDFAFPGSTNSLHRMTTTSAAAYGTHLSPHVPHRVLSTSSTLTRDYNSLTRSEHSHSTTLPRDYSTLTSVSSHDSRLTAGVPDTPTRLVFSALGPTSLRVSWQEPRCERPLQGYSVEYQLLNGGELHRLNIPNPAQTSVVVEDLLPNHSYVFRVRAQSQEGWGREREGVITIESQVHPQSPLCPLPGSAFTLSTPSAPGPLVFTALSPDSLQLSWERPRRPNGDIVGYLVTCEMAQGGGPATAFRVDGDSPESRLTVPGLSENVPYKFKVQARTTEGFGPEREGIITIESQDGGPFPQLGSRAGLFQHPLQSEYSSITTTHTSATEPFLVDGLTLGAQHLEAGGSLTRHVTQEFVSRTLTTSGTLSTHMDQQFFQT

[2] = target: B1; assay: Y2H; INT ID 38
DKFZP434I1735 protein = target: T4, DKFZP434I1735 protein (human, UniProt Q86XA9 451-2040); assay: Y2H; INT ID 50
T4 construct: also called cbe_3643627

[3] = target: B3; assay: Y2H; INT ID 51
[4] = target: T5, PEST-containing nuclear protein (human, UniProt Q8WW12 2-178); assay: Y2H; INT ID 140
T5 construct: also called pcnp; PCNP
T5 sequence: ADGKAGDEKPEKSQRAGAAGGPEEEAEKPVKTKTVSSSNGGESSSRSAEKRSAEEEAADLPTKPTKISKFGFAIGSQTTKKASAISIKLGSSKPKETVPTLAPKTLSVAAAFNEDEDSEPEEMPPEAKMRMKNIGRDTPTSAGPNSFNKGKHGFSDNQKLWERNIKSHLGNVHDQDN

RABIF = target: T6, RABIF (human, UniProt P47224 1-123); assay: Y2H; INT ID 139
T6 construct: also called cbe_3472582
T6 sequence: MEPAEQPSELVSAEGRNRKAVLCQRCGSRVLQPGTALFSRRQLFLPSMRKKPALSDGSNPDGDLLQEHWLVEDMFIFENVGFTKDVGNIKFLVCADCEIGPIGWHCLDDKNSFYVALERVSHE

PCDH1 = target: T7, PCDH1 (human, UniProt Q08174 58-1060); assay: Y2H; INT ID 142
T7 construct: also called cbe_4269156
T7 sequence: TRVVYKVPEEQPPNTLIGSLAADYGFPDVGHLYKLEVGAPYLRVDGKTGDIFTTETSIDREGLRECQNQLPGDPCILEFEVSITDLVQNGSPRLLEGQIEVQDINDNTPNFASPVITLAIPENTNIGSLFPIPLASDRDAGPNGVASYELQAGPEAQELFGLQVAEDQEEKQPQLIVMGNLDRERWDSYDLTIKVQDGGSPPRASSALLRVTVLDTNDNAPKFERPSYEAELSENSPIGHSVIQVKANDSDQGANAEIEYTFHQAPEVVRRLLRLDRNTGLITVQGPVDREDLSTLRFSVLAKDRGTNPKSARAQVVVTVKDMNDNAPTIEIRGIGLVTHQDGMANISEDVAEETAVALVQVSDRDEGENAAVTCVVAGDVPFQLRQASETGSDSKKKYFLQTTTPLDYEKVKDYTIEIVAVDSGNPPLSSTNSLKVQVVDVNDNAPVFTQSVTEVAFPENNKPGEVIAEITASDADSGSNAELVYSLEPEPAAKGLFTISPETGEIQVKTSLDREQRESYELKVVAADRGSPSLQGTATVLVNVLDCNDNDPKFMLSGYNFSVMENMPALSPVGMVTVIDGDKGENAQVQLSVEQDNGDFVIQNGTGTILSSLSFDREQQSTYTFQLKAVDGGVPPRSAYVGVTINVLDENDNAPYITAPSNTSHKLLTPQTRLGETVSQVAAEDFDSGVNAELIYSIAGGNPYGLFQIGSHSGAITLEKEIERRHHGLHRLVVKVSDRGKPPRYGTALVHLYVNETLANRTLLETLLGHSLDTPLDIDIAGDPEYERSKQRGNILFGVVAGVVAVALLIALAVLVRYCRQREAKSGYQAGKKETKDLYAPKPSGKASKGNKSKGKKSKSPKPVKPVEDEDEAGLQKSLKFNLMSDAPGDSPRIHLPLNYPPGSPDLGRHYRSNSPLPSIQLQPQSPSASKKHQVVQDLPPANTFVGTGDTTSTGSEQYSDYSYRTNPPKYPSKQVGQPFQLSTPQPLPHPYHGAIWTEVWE

HPV 16 E1-E4 = target: B5; assay: Y2H; INT ID 141

B1
binding result (PTPN21): binds | binding result [1]: binds | binding result (ITGB4): binds

B2
binding result [2]: binds

B3
binding result (DKFZP434I1735 protein): binds

B4
binding result [3]: binds

B5
binding result [4]: binds | binding result (RABIF): binds | binding result (PCDH1): binds

B6
binding result (HPV 16 E1-E4): binds
